Molecular target: TRAIL receptors
Test: cell-based or functional assay

Row | Binder | EC50 measured by use of L929 cells [ng/mL] | also measured
1 | super-TRAIL AX-1620, P50591 114-281 (ligand) VRERGPQRVAAHITGTRGRSNTLSSPNSKNEKALGRKINSWESSRSGHSFLSNLHLRNGELVIHEKGFYYIYSQTYFRFQEEIKENTKNDKQMVQYIYKYTSYPDPILLMKSARNSCWSKDAEYGLYSIYQGGIFELKENDRIFVSVTNEHLIDMDHEASFFGAFLVGGGGSGGGGSGGGSGGVAAHITGTRGRSNTLSSPNSKNEKALGRKINSWESSRSGHSFLSNLHLRNGELVIHEKGFYYIYSQTYFRFQEEIKENTKNDKQMVQYIYKYTSYPDPILLMKSARNSCWSKDAEYGLYSIYQGGIFELKENDRIFVSVTNEHLIDMDHEASFFGAFLVG | 2.1 | –
2 | super-TRAIL AX-1606, P50591 120-281 (ligand) QRVAAHITGTRGRSNTLSSPNSKNEKALGRKINSWESSRSGHSFLSNLHLRNGELVIHEKGFYYIYSQTYFRFQEEIKENTKNDKQMVQYIYKYTSYPDPILLMKSARNSCWSKDAEYGLYSIYQGGIFELKENDRIFVSVTNEHLIDMDHEASFFGAFLVGGGGSGGGGSGGQRVAAHITGTRGRSNTLSSPNSKNEKALGRKINSWESSRSGHSFLSNLHLRNGELVIHEKGFYYIYSQTYFRFQEEIKENTKNDKQMVQYIYKYTSYPDPILLMKSARNSCWSKDAEYGLYSIYQGGIFELKENDRIFVSVTNEHLIDMDHEASFFGAFLVG | 1.05 | –
3 | super-TRAIL AX-1611, P50591 114-281 (ligand) VRERGPQRVAAHITGTRGRSNTLSSPNSKNEKALGRKINSWESSRSGHSFLSNLHLRNGELVIHEKGFYYIYSQTYFRFQEEIKENTKNDKQMVQYIYKYTSYPDPILLMKSARNSCWSKDAEYGLYSIYQGGIFELKENDRIFVSVTNEHLIDMDHEASFFGAFLVGGGGGGVAAHITGTRGRSNTLSSPNSKNEKALGRKINSWESSRSGHSFLSNLHLRNGELVIHEKGFYYIYSQTYFRFQEEIKENTKNDKQMVQYIYKYTSYPDPILLMKSARNSCWSKDAEYGLYSIYQGGIFELKENDRIFVSVTNEHLIDMDHEASFFGAFLVG | 0.85 | EC50, viability of H460 cells by MTS assay: 54.7 ng/mL; EC50, viability of RPMI-8226 cells by MTS assay: 15.4 ng/mL; fold enhanced activity to induce apoptosis in L929 cells compared with wild type TRAIL: 30 fold
4 | super-TRAIL AX-1621, P50591 114-281 (ligand) VRERGPQRVAAHITGTRGRSNTLSSPNSKNEKALGRKINSWESSRSGHSFLSNLHLRNGELVIHEKGFYYIYSQTYFRFQEEIKENTKNDKQMVQYIYKYTSYPDPILLMKSARNSCWSKDAEYGLYSIYQGGIFELKENDRIFVSVTNEHLIDMDHEASFFGAFLVGGGGSGGVAAHITGTRGRSNTLSSPNSKNEKALGRKINSWESSRSGHSFLSNLHLRNGELVIHEKGFYYIYSQTYFRFQEEIKENTKNDKQMVQYIYKYTSYPDPILLMKSARNSCWSKDAEYGLYSIYQGGIFELKENDRIFVSVTNEHLIDMDHEASFFGAFLVG | 0.95 | –
5 | super-TRAIL AX-1631, P50591 114-281 (ligand) VRERGPQRVAAHITGTRGRSNTLSSPNSKNEKALGRKINSWESSRSGHSFLSNLHLRNGELVIHEKGFYYIYSQTYFRFQEEIKENTKNDKQMVQYIYKYTSYPDPILLMKSARNSCWSKDAEYGLYSIYQGGIFELKENDRIFVSVTNEHLIDMDHEASFFGAFLVGGGGGGGVAAHITGTRGRSNTLSSPNSKNEKALGRKINSWESSRSGHSFLSNLHLRNGELVIHEKGFYYIYSQTYFRFQEEIKENTKNDKQMVQYIYKYTSYPDPILLMKSARNSCWSKDAEYGLYSIYQGGIFELKENDRIFVSVTNEHLIDMDHEASFFGAFLVG | 1.2 | –
6 | super-TRAIL AX-1622, P50591 114-281 (ligand) VRERGPQRVAAHITGTRGRSNTLSSPNSKNEKALGRKINSWESSRSGHSFLSNLHLRNGELVIHEKGFYYIYSQTYFRFQEEIKENTKNDKQMVQYIYKYTSYPDPILLMKSARNSCWSKDAEYGLYSIYQGGIFELKENDRIFVSVTNEHLIDMDHEASFFGAFLVGGGGSGGGVAAHITGTRGRSNTLSSPNSKNEKALGRKINSWESSRSGHSFLSNLHLRNGELVIHEKGFYYIYSQTYFRFQEEIKENTKNDKQMVQYIYKYTSYPDPILLMKSARNSCWSKDAEYGLYSIYQGGIFELKENDRIFVSVTNEHLIDMDHEASFFGAFLVG | 5.3 | –
7 | super-TRAIL AX-1623, P50591 114-281 (ligand) VRERGPQRVAAHITGTRGRSNTLSSPNSKNEKALGRKINSWESSRSGHSFLSNLHLRNGELVIHEKGFYYIYSQTYFRFQEEIKENTKNDKQMVQYIYKYTSYPDPILLMKSARNSCWSKDAEYGLYSIYQGGIFELKENDRIFVSVTNEHLIDMDHEASFFGAFLVGGGGSGGGGVAAHITGTRGRSNTLSSPNSKNEKALGRKINSWESSRSGHSFLSNLHLRNGELVIHEKGFYYIYSQTYFRFQEEIKENTKNDKQMVQYIYKYTSYPDPILLMKSARNSCWSKDAEYGLYSIYQGGIFELKENDRIFVSVTNEHLIDMDHEASFFGAFLVG | 0.88 | –
8 | super-TRAIL AX-1630, P50591 114-281 (ligand) VRERGPQRVAAHITGTRGRSNTLSSPNSKNEKALGRKINSWESSRSGHSFLSNLHLRNGELVIHEKGFYYIYSQTYFRFQEEIKENTKNDKQMVQYIYKYTSYPDPILLMKSARNSCWSKDAEYGLYSIYQGGIFELKENDRIFVSVTNEHLIDMDHEASFFGAFLVGGGGGGGGGVAAHITGTRGRSNTLSSPNSKNEKALGRKINSWESSRSGHSFLSNLHLRNGELVIHEKGFYYIYSQTYFRFQEEIKENTKNDKQMVQYIYKYTSYPDPILLMKSARNSCWSKDAEYGLYSIYQGGIFELKENDRIFVSVTNEHLIDMDHEASFFGAFLVG | 0.78 | –
9 | super-TRAIL AX-1632, P50591 114-281 (ligand) VRERGPQRVAAHITGTRGRSNTLSSPNSKNEKALGRKINSWESSRSGHSFLSNLHLRNGELVIHEKGFYYIYSQTYFRFQEEIKENTKNDKQMVQYIYKYTSYPDPILLMKSARNSCWSKDAEYGLYSIYQGGIFELKENDRIFVSVTNEHLIDMDHEASFFGAFLVGGGGGGGGGGVAAHITGTRGRSNTLSSPNSKNEKALGRKINSWESSRSGHSFLSNLHLRNGELVIHEKGFYYIYSQTYFRFQEEIKENTKNDKQMVQYIYKYTSYPDPILLMKSARNSCWSKDAEYGLYSIYQGGIFELKENDRIFVSVTNEHLIDMDHEASFFGAFLVG | 1.1 | –
10 | super-TRAIL AX-1618, P50591 114-281 (ligand) VRERGPQRVAAHITGTRGRSNTLSSPNSKNEKALGRKINSWESSRSGHSFLSNLHLRNGELVIHEKGFYYIYSQTYFRFQEEIKENTKNDKQMVQYIYKYTSYPDPILLMKSARNSCWSKDAEYGLYSIYQGGIFELKENDRIFVSVTNEHLIDMDHEASFFGAFLVGGGGSGGGGSGGVAAHITGTRGRSNTLSSPNSKNEKALGRKINSWESSRSGHSFLSNLHLRNGELVIHEKGFYYIYSQTYFRFQEEIKENTKNDKQMVQYIYKYTSYPDPILLMKSARNSCWSKDAEYGLYSIYQGGIFELKENDRIFVSVTNEHLIDMDHEASFFGAFLVG | 1.5 | –

— patent US20240254193A1
